B1: Hammerhead Ribozyme (parent)
chain: ACCGGAUGUGCUUUCCGGUCUGAUGAGUCCGUGAGGACGAAACAG

Variants of: B1
Assay: self-cleavage, relative activity (ratio to wild type); higher = more cleavage; co-transcriptional
U12C U32C showed a self-cleavage of 1.05.
C29U C38A showed a self-cleavage of 0.485.
Variant G4A U24A has a self-cleavage of 0.682.
C11U G39U showed a self-cleavage of 0.3.
C3G U14C showed a self-cleavage of 0.56.
C11G G25C showed a self-cleavage of 0.326.
With C16U A41G the self-cleavage was 0.376.
For C30U G31U, the self-cleavage was 1.01.
U19G C30G gave a self-cleavage of 0.41.
Variant U19C A26U has a self-cleavage of 0.492.
C16A C30U gave a self-cleavage of 1.32.
In the case of A1U G4A, the self-cleavage is reported as 0.342.
In the case of U7G A42G, the self-cleavage is reported as 0.33.
In the case of U7G A42U, the self-cleavage is reported as 0.326.
With U13C G36C the self-cleavage was 0.336.
With U7A G36C the self-cleavage was 0.394.
For A1G G31A, the self-cleavage was 1.79.
U9G G35U showed a self-cleavage of 0.64.
Variant C20U G27C has a self-cleavage of 0.409.
In the case of G8U G27U, the self-cleavage is reported as 0.554.
Variant C16G G18C has a self-cleavage of 0.376.
With C2A G31U the self-cleavage was 0.828.
Variant U21C C29U has a self-cleavage of 0.84.
Variant U28G C29A has a self-cleavage of 0.878.
U9G A41G gave a self-cleavage of 0.303.
Work on U19G C20A yielded a self-cleavage of 0.316.
Work on G17U A44C yielded a self-cleavage of 0.495.
U7C G18A gave a self-cleavage of 0.438.
U21G G25U gave a self-cleavage of 0.373.
Variant U14C A26C has a self-cleavage of 0.371.
A1C G31U showed a self-cleavage of 0.561.
In the case of U24G G27U, the self-cleavage is reported as 0.438.
Variant A6U C16A has a self-cleavage of 0.471.
Work on G4U C16A yielded a self-cleavage of 1.07.
G5U U24A gave a self-cleavage of 0.809.
C30U G36A showed a self-cleavage of 0.547.
C2A G17C showed a self-cleavage of 0.359.
Variant U9G A34C has a self-cleavage of 0.579.
Variant G4A U9A has a self-cleavage of 0.458.
G8C U14C showed a self-cleavage of 0.785.
In the case of U19A G22U, the self-cleavage is reported as 0.3.
In the case of G25U G45U, the self-cleavage is reported as 0.323.
For U9G G33C, the self-cleavage was 0.78.
With G36C C43G the self-cleavage was 0.286.
U12C G39U gave a self-cleavage of 0.317.
Work on G5A U14G yielded a self-cleavage of 1.41.
With G5C G27U the self-cleavage was 0.321.
U7C C15A gave a self-cleavage of 0.737.
Work on A6U A23G yielded a self-cleavage of 0.249.
For G10U C38U, the self-cleavage was 1.09.
With C16G A44G the self-cleavage was 1.18.
Variant U21G A34C has a self-cleavage of 0.278.
Variant C29U G33U has a self-cleavage of 0.92.
G4U G36A gave a self-cleavage of 0.321.
In the case of U14G G22U, the self-cleavage is reported as 0.394.
G8C C38U gave a self-cleavage of 0.979.
A6U C38A showed a self-cleavage of 0.511.
With A6U C38G the self-cleavage was 0.458.
U24A G27U showed a self-cleavage of 0.508.
With C3G G10C the self-cleavage was 0.52.
U7G G35U showed a self-cleavage of 0.911.
C20G U28C showed a self-cleavage of 0.261.
In the case of G8A G18U, the self-cleavage is reported as 0.635.
U21G C29G showed a self-cleavage of 0.285.
C15A A37G gave a self-cleavage of 0.895.
In the case of G36A C38U, the self-cleavage is reported as 0.531.
For U13A A44U, the self-cleavage was 0.749.
A6U U9C gave a self-cleavage of 0.654.
A26G A40U gave a self-cleavage of 0.412.
Variant C30U A44C has a self-cleavage of 0.632.
With G22A A44C the self-cleavage was 0.372.
For A1G G27U, the self-cleavage was 0.585.
Variant G27U C43G has a self-cleavage of 0.268.
A37C G39C showed a self-cleavage of 0.316.
Variant G10A C38A has a self-cleavage of 0.814.
With U13A A23U the self-cleavage was 0.361.
With U21C A34U the self-cleavage was 0.749.
Work on C16A G17A yielded a self-cleavage of 0.374.
Variant U14C C30G has a self-cleavage of 0.65.
U7A C15A gave a self-cleavage of 0.852.
For C15A U19C, the self-cleavage was 0.366.
C20U C30A gave a self-cleavage of 0.464.
Work on G22A A26G yielded a self-cleavage of 0.269.
With G22A A26U the self-cleavage was 0.338.
C16G U24A gave a self-cleavage of 0.751.
For U14G A42G, the self-cleavage was 0.381.
With U19C A40G the self-cleavage was 0.332.
A6G A34C showed a self-cleavage of 0.604.
Work on A6G A34U yielded a self-cleavage of 0.82.
Work on G17U yielded a self-cleavage of 0.855.
For A41U A42U, the self-cleavage was 0.244.
With U7A U9G the self-cleavage was 1.32.
G8U A40C gave a self-cleavage of 0.566.
C16A G25C gave a self-cleavage of 0.372.
In the case of C16A G25U, the self-cleavage is reported as 0.331.
Variant G17C G33A has a self-cleavage of 0.564.
For U12A C16G, the self-cleavage was 0.764.
C11A A42C gave a self-cleavage of 0.284.
With C11A A42U the self-cleavage was 0.282.
With U12G A44U the self-cleavage was 0.565.
With U13C G22C the self-cleavage was 0.247.
In the case of C16G G35U, the self-cleavage is reported as 0.472.
Variant G10A C29U has a self-cleavage of 1.17.
Variant C38U A40G has a self-cleavage of 0.37.
With U21A G36A the self-cleavage was 0.41.
Variant U14A G22U has a self-cleavage of 0.331.
With G5U A42U the self-cleavage was 0.323.
For G36U A44C, the self-cleavage was 0.339.
U13A C16U showed a self-cleavage of 1.02.
U14C A37U showed a self-cleavage of 0.624.
Variant U28G A37C has a self-cleavage of 0.919.
With A26U A41G the self-cleavage was 0.434.
In the case of A23U A37G, the self-cleavage is reported as 0.422.
With U14G C43A the self-cleavage was 0.304.
In the case of U14G C29U, the self-cleavage is reported as 0.625.
Variant C16A C38U has a self-cleavage of 0.85.
With A40G G45C the self-cleavage was 0.466.
Work on U21C A41G yielded a self-cleavage of 0.297.
A1C C20U showed a self-cleavage of 0.376.
G18C gave a self-cleavage of 0.62.
In the case of U19G A26U, the self-cleavage is reported as 0.332.
Work on U9A yielded a self-cleavage of 1.02.
In the case of G35A G45U, the self-cleavage is reported as 0.471.
In the case of G35C G39C, the self-cleavage is reported as 0.365.
With G10C C29A the self-cleavage was 0.678.
G8C G45C gave a self-cleavage of 0.717.
For G17A A37G, the self-cleavage was 0.604.
For C2A C20U, the self-cleavage was 0.372.
For C29A G36U, the self-cleavage was 0.624.
With U24G C29A the self-cleavage was 0.447.
Work on U13G G22C yielded a self-cleavage of 0.315.
Variant U24G G39U has a self-cleavage of 0.303.
With C11A A26G the self-cleavage was 0.28.
Work on C11G yielded a self-cleavage of 1.12.
In the case of C11G G31C, the self-cleavage is reported as 0.83.
In the case of G33A G36U, the self-cleavage is reported as 0.613.
For U13C G35U, the self-cleavage was 0.744.
U7A A23G showed a self-cleavage of 0.308.
With U7A A23U the self-cleavage was 0.322.
For G5U U19A, the self-cleavage was 0.29.
G33U A44U gave a self-cleavage of 0.87.
Work on C2G A44C yielded a self-cleavage of 0.322.
A1C U9G gave a self-cleavage of 0.346.
Work on A6C C30A yielded a self-cleavage of 0.588.
With G25C G36U the self-cleavage was 0.309.
In the case of G10A A42U, the self-cleavage is reported as 0.38.
Work on G5U U7C yielded a self-cleavage of 0.716.
For U12G A42U, the self-cleavage was 0.321.
G4U G35A gave a self-cleavage of 0.337.
Work on G10U U28C yielded a self-cleavage of 1.18.
Variant G5A G8U has a self-cleavage of 1.33.
For G5C, the self-cleavage was 0.669.
Variant C16U G22C has a self-cleavage of 0.318.
In the case of G8C G18C, the self-cleavage is reported as 0.564.
In the case of U19A C29G, the self-cleavage is reported as 0.295.
C29U A40U gave a self-cleavage of 0.28.
C11G C20A gave a self-cleavage of 0.477.
A6C G27A showed a self-cleavage of 0.56.
In the case of A41G A44C, the self-cleavage is reported as 0.391.
Variant C2G A26C has a self-cleavage of 0.341.
U14G A40G gave a self-cleavage of 0.366.
Work on A26G A44G yielded a self-cleavage of 0.654.
In the case of A42U A44U, the self-cleavage is reported as 0.276.
In the case of U14C G27A, the self-cleavage is reported as 0.602.
With U12G C15U the self-cleavage was 0.823.
G18U U19G gave a self-cleavage of 0.291.
G39U C43G showed a self-cleavage of 0.298.

— the RNAGym collection of RNA variant scans (doi:10.7554/elife.80360)
